# Results reported in article PMC3903132.
# Target: PSI^PsaJF, phage-mimetic photosystem I complex with the fused PsaJF subunit (one monomer of the trimer) (Synechocystis sp. PCC 6803) (UniProt P29254)
# Experiment: crystal structure; PSI^PsaJF trimer purified from Synechocystis membranes, 3.8 Å, space group P21, three monomers in the asymmetric unit
substance,measurement,value
"PSI^PsaJF, phage-mimetic photosystem I complex with the fused PsaJF subunit (one monomer of the trimer) (from UniProt P29254 1-751; P29255 1-731; P32422 1-81; P19569 1-141; P12975 1-74; Q55329 1-40; P29256 84-165; Q55330 1-40; P72712 1-86; P37277 1-157; P72986 1-31)",stoichiometry N,3
